Test results taken from patent US20180195056.

## wheat (Triticum) Atg4 ortholog (trAtg4)
His14-xlGATE16-MBP
  protease concentration for significant cleavage, against its cognate substrate trAtg8 and the yeast substrate: the Xenopus xlGATE16 substrate required drastically (>100-fold) higher trAtg4 concentrations for significant cleavage
His14-xlLC3B-MBP
  substrate cleavage in protease titration (100 µM substrate, 1 h, 25° C.): xlLC3B cleavage by trAtg4 was only barely detectable
